{"source": "paper PMC9364032", "about": "“RNA induces unique tau strains and stabilizes Alzheimer’s disease seeds”", "settings_in_all_cases": "protein: recombinant; single strand", "key": {"[1]": {"molecular_target": "T1, tau 2N4R full-length monomer, WT (UniProt P10636-8 1-441)", "T1 sequence (P10636 other isoform, or with tags, fused parts or gaps)": "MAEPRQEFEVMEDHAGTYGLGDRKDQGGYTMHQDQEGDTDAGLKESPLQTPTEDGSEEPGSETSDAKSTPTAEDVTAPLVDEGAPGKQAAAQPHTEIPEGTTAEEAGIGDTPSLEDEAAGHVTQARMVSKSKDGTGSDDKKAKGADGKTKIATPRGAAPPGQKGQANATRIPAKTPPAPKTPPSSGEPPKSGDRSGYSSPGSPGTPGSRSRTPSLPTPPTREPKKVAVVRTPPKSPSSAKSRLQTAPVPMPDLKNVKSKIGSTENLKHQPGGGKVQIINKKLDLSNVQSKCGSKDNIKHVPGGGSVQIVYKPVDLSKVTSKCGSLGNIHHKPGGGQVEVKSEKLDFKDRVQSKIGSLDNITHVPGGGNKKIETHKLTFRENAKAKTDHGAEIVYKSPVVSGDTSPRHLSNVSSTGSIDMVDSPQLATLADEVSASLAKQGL", "assay": "BLI; apparent Kd, 2:1 model; kon 1.0e4 M-1 s-1, koff 1.4e-4 s-1; mean of 3; BLI (Octet, AR2G sensors, tau immobilized), nucleic acid 0.13-41 uM; buffer, salt, pH and temperature not given in the material"}, "[2]": {"molecular_target": "T1, tau 2N4R full-length monomer, WT", "assay": "BLI; apparent Kd, 2:1 model; kon 2.8e4 M-1 s-1, koff 3.4e-4 s-1; mean of 3; BLI (Octet, AR2G sensors, tau immobilized), nucleic acid 0.13-41 uM; buffer, salt, pH and temperature not given in the material"}, "[3]": {"molecular_target": "T1, tau 2N4R full-length monomer, WT", "assay": "BLI; apparent Kd, 2:1 model; kon 1.7e3 M-1 s-1, koff 4.2e-4 s-1; mean of 3; BLI (Octet, AR2G sensors, tau immobilized), nucleic acid 0.13-41 uM; buffer, salt, pH and temperature not given in the material"}}}
{"binder": "AAAAAAAAAAAAAAAAAAAAAAAAAAAAAAAAAAAAAAAA (ssRNA)", "note": "[PolyA 40-mer RNA]", "values": [{"measurement": "Kd", "setting": "[1]", "value": 20, "unit": "nM"}]}
{"binder": "GTTAAGTCCCGAACTAGATGTGACCTAACGGTAAGAGAAT (ssDNA)", "note": "[ssDNA Seq1 (random 40-mer)]", "values": [{"measurement": "Kd", "setting": "[2]", "value": 12, "unit": "nM"}]}
{"binder": "UUUUUUUUUUUUUUUUUUUUUUUUUUUUUUUUUUUUUUUU (ssRNA)", "note": "[PolyU 40-mer RNA]", "values": [{"measurement": "Kd", "setting": "[3]", "value": 254, "unit": "nM"}]}
